Assay results reported in article PMC3210390.
Numbering of substitutions follows the chain as printed.

T1: Tfam WT (mature) (Homo sapiens, UniProt Q00059 43-246)
T1 sequence: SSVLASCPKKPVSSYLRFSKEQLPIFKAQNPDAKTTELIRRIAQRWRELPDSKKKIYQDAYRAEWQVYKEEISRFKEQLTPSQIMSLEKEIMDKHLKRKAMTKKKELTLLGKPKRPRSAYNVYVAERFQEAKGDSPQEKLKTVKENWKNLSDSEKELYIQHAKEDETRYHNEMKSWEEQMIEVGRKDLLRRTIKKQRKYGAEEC

T2: Tfam HMG-box B (Homo sapiens, UniProt Q00059 153-222)
T2 sequence: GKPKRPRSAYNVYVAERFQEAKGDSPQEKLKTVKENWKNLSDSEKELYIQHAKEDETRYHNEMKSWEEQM

T3: Tfam Y162A (Homo sapiens, UniProt Q00059 43-246, Y162A)
T3 sequence: T1 sequence with Y120A

T4: Tfam HMG-box A (Homo sapiens, UniProt Q00059 43-122)
T4 sequence: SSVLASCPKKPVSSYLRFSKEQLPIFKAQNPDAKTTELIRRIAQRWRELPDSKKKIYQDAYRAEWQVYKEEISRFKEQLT

T5: Tfam T77A (Homo sapiens, UniProt Q00059 43-246, T77A)
T5 sequence: T1 sequence with T35A

T6: Tfam L6 (Homo sapiens, UniProt Q00059 43-246, K136A;H137A;K139A;R140A;K146A;K147A)
T6 sequence: T1 sequence with K94A, H95A, K97A, R98A, K104A, K105A

B1: LSP 28 bp (dsDNA)
DNA 1: TGTTAGTTGGGGGGTGACTGTTAAAAGT
DNA 2: ACTTTTAACAGTCACCCCCCAACTAACA
B2: LSP 28 bp Cy3/Cy5 (dsDNA)
DNA 1: TGTTAGTTGGGGGGTGACTGTTAAAAGT
DNA 2: ACTTTTAACAGTCACCCCCCAACTAACA

How the values were obtained:
Tfam WT (mature) [1] = biological target: T1, Tfam WT (mature); assay: intrinsic Trp fluorescence quenching
Tfam HMG-box B = biological target: T2, Tfam HMG-box B; assay: intrinsic Trp fluorescence quenching
Tfam Y162A [2] = biological target: T3, Tfam Y162A; assay: intrinsic Trp fluorescence quenching
Tfam HMG-box A = biological target: T4, Tfam HMG-box A; assay: intrinsic Trp fluorescence quenching
Tfam T77A [3] = biological target: T5, Tfam T77A; assay: intrinsic Trp fluorescence quenching
Tfam L6 [4] = biological target: T6, Tfam L6; assay: intrinsic Trp fluorescence quenching
Tfam WT (mature) [5] = biological target: T1, Tfam WT (mature); assay: FRET bending
Tfam Y162A [6] = biological target: T3, Tfam Y162A; assay: FRET bending
Tfam T77A [7] = biological target: T5, Tfam T77A; assay: FRET bending
Tfam L6 [8] = biological target: T6, Tfam L6; assay: FRET bending

Binder	Kd (Tfam WT (mature) [1]) [nM]	Kd (Tfam HMG-box B) [nM]	Kd (Tfam Y162A [2]) [nM]	Kd (Tfam HMG-box A) [nM]	Kd (Tfam T77A [3]) [nM]	Kd (Tfam L6 [4]) [nM]	binding signal (Tfam WT (mature) [5]) [% FRET efficiency]	binding signal (Tfam Y162A [6]) [% FRET efficiency]	binding signal (Tfam T77A [7]) [% FRET efficiency]	binding signal (Tfam L6 [8]) [% FRET efficiency]
B1	6 ± 0.9	411 ± 46	12.3 ± 1.8	6.5 ± 1.2	7.6 ± 1.1	10.1 ± 1.2	–	–	–	–
B2	–	–	–	–	–	–	36.5 ± 0.8	29.4 ± 0.6	31.4 ± 0.2	26.1 ± 0.6
